The values below come from PMC4888466.

The Km is the substrate concentration at which the rate is half of its maximum. Usually kcat stands for the maximal rate divided by the concentration of active sites. As a reminder, the kcat/Km is the second-order rate constant that governs catalysis at low substrate concentration.

Holding throughout (experiment): purified protein
What all share (assay type): biochemical, Caenorhabditis elegans

The test system of series [1] is O=P(O)(O)O[C@H]1O[C@H](CO)[C@@H](O)[C@H](O)[C@H]1O. The following applies: 1 mM GTP, 5 mM MgCl2, pH 7.5, 25°C.
In series [2] the test system is Nc1nc2c(ncn2[C@@H]2O[C@H](COP(=O)(O)OP(=O)(O)OP(=O)(O)O)[C@@H](O)[C@H]2O)c(=O)[nH]1. The following applies: 1 mM Man-1-P, 5 mM MgCl2, pH 7.5, 25°C.
For series [3], the system named is O=P(O)(O)O[C@H]1O[C@H](CO)[C@@H](O)[C@H](O)[C@@H]1O. The following applies: 1 mM GTP, 5 mM MgCl2, pH 7.5, 25°C.

Consider GMP-1 (Caenorhabditis elegans), for which the Km in series [1] was found to be 508.90 ± 118.40 µM; in series [2] it was 16.04 ± 1.68 µM; in series [3], 18.49 ± 2.14 µM. Further, the figures for the kcat in series [1], in series [2] and in series [3] were 33.1 ± 2.9 s⁻¹, 29.1 ± 0.58 s⁻¹ and 30.3 ± 0.69 s⁻¹, respectively. Also, the kcat/Km in series [1] came to 65000 ± 16000 M⁻¹ s⁻¹; in series [2], 1.81e+06 ± 190000 M⁻¹ s⁻¹; in series [3], 1.64e+06 ± 190000 M⁻¹ s⁻¹.
